Columns and labels:
[1] = target: T1, human PD-1 expressed on the cell surface of engineered Jurkat cells (human, UniProt Q15116 25-288); assay: cell-based or functional assay
[2] = target: T2, human TIGIT expressed on the cell surface (human, UniProt Q495A1 22-244); assay: cell-based or functional assay
T2 sequence (looked up): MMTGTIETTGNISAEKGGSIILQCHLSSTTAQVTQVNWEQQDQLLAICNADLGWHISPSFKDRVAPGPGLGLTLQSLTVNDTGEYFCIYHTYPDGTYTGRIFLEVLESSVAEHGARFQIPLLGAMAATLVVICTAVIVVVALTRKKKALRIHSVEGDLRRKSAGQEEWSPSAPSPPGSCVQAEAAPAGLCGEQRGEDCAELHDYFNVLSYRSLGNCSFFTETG

[3] = target: T3, human PD-1 and human TIGIT co-expressed on Jurkat PD-1^+TIGIT^+ cells (human, UniProt Q15116 25-288; Q495A1 22-244); assay: cell-based or functional assay
[4] = target: T1, human PD-1 expressed on the cell …; assay: flow cytometry on PD-1^+ Jurkat cells
[5] = target: T2, human TIGIT expressed on the cell …; assay: flow cytometry on TIGIT^+ Jurkat cells
[6] = target: T3, human PD-1 and human TIGIT co-expressed …; assay: flow cytometry on PD-1^+TIGIT^+ Jurkat cells, mean
Description: (§1) TIGIT⁻ cells. […] MFI=geometric mean fluorescence intensity; PD-1=programmed cell-death protein 1; TIGIT=T cell immunoreceptor with Ig and immunoreceptor tyrosine-based inhibitory motif domains. Cellular binding to human single expressing cell lines: Jurkat PD-1⁻ TIGIT⁺ and Jurkat PD-1⁺TIGIT⁻ or human double expressing Jurkat PD-1⁺ TIGIT⁺. Test and control article antibodies were detected with fluorescently conjugated goat anti human IgG secondary antibody and evaluated by flow cytometry.

[7] = target: T1, human PD-1 expressed on the cell …; assay: flow cytometry on PD-1^+TIGIT^- Jurkat cells, mean
[8] = target: T2, human TIGIT expressed on the cell …; assay: flow cytometry on PD-1^-TIGIT^+ Jurkat cells, mean
Description: as §1

[9] = target: T1, human PD-1 expressed on the cell …; assay: flow cytometry on PD-1^+ Jurkat cells, Experiment #1
[10] = target: T1, human PD-1 expressed on the cell …; assay: flow cytometry on PD-1^+ Jurkat cells, Experiment #2
[11] = target: T2, human TIGIT expressed on the cell …; assay: flow cytometry on TIGIT^+ Jurkat cells, Experiment #1
[12] = target: T2, human TIGIT expressed on the cell …; assay: flow cytometry on TIGIT^+ Jurkat cells, Experiment #2
[13] = target: T3, human PD-1 and human TIGIT co-expressed …; assay: flow cytometry on PD-1^+TIGIT^+ Jurkat cells, Experiment #2
Description: as §1

[14] = target: T1, human PD-1 expressed on the cell …; assay: flow cytometry on PD-1^+TIGIT^- Jurkat cells, Experiment #1
[15] = target: T1, human PD-1 expressed on the cell …; assay: flow cytometry on PD-1^+TIGIT^- Jurkat cells, Experiment #2
[16] = target: T2, human TIGIT expressed on the cell …; assay: flow cytometry on PD-1^-TIGIT^+ Jurkat cells, Experiment #1
Description: as §1

[17] = target: T2, human TIGIT expressed on the cell …; assay: flow cytometry on PD-1^-TIGIT^+ Jurkat cells, Experiment #2
Description: as §1

[18] = target: T1, human PD-1 expressed on the cell …; assay: flow cytometry on PD-1^+ Jurkat cells, mean of two experiments
[19] = target: T2, human TIGIT expressed on the cell …; assay: flow cytometry on TIGIT^+ Jurkat cells, mean of two experiments
[20] = target: T4, cyTIGIT (cynomolgus TIGIT, recombinant) (cynomolgus, UniProt A0A7N9I9V4 89-209); assay: SPR (BIAcore T200), PD-1/TIGIT DuetMab sample, cyTIGIT as ligand
T4 construct: Ligand in the BIAcore assay; The construct is not described
Experimental: (§2) Binding experiments were carried out using a BIAcore T200 instrument (BIAcore).

[21] = target: T5, recombinant human TIGIT protein (human, UniProt Q495A1 22-141); assay: SPR (BIAcore T200), PD-1/TIGIT DuetMab sample, huTIGIT as ligand
T5 construct: In the Octet assay it was used biotinylated on streptavidin sensors or in solution; Construct and tags are not described; also called huTIGIT; human TIGIT antigen
T5 sequence (looked up): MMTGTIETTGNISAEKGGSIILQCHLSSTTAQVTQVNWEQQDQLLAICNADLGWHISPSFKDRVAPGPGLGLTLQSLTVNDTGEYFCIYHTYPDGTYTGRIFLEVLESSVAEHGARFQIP
Experimental: as §2

[22] = target: T6, muTIGIT (mouse TIGIT, recombinant) (mouse (printed as 'mu'), UniProt P86176 29-148, limits assumed); assay: SPR (BIAcore T200), PD-1/TIGIT DuetMab sample, muTIGIT as ligand
T6 construct: Ligand in the BIAcore assay; The construct is not described
T6 sequence (looked up): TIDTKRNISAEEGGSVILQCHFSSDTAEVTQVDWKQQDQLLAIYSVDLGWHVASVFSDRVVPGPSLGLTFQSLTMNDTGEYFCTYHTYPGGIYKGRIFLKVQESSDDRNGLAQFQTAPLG
Experimental: as §2

[23] = target: T3, human PD-1 and human TIGIT co-expressed …; assay: flow cytometry on PD-1^+TIGIT^+ Jurkat cells, Experiment #1; PD-1^+TIGIT^+ Jurkat cells, Experiment #1
Description: as §1

[24] = target: T2, human TIGIT expressed on the cell …; assay: flow cytometry (MFI) on 293 cells overexpressing human TIGIT; Kd row of the table under the graph, the concentration axis is [nM]
[25] = target: T7, cynomolgus TIGIT overexpressed on 293 cells (cynomolgus, UniProt A0A7N9I9V4 89-312); assay: flow cytometry (MFI) on 293 cells overexpressing cynomolgus TIGIT; Kd row of the table under the graph, the concentration axis is [nM]
T7 construct: whole, on cells
T7 sequence (A0A7N9I9V4 entry or part of it): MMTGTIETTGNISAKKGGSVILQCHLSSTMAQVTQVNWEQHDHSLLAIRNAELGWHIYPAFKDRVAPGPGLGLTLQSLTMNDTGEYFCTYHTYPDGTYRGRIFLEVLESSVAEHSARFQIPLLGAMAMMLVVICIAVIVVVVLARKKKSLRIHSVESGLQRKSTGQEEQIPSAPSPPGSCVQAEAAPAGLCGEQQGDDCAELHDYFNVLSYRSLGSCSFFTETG

T4 sequence (A0A7N9I9V4 entry or part of it): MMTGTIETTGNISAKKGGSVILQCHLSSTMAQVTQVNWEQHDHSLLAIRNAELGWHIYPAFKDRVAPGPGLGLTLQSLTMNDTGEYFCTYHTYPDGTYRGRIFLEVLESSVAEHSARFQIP
T3 sequence (Q15116 25-288, one chain of several): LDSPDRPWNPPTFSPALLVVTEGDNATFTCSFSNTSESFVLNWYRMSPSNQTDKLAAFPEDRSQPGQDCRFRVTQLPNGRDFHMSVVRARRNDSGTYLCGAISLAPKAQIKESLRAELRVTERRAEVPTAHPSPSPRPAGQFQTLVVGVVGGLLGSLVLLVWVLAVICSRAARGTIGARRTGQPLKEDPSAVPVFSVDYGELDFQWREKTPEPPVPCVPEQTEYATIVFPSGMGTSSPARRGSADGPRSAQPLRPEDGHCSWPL
T1 sequence (Q15116 25-288, change not shown): as the sequence (Q15116 25-288, one chain of several) above

EC50 (nM), NFAT-luciferase reporter, Experiment #1 [1]: 4.7 nM
EC50 (nM), NFAT-luciferase reporter, Experiment #2 [1]: 3.83 nM
Fold Change of Mean EC50 vs. Anti-PD-1 [1]: 1.4 fold
Mean EC50 (nM), NFAT-luciferase reporter [1]: 4.26 nM
EC50 (nM), NFAT-luciferase reporter, Experiment #1 [2]: 17 nM
EC50 (nM), NFAT-luciferase reporter, Experiment #2 [2]: 13.7 nM
Fold Change of Mean EC50 vs. Anti-TIGIT [2]: 6.89 fold
Mean EC50 (nM), NFAT-luciferase reporter [2]: 15.3 nM
EC50 (nM), NFAT-luciferase reporter, Experiment #1 [3]: 5.57 nM
EC50 (nM), NFAT-luciferase reporter, Experiment #2 [3]: 6.07 nM
Fold Change of Mean EC50 vs. Anti-TIGIT and Anti-PD-1 combination [3]: 0.93 fold
Mean EC50 (nM), NFAT-luciferase reporter [3]: 5.82 nM
Fold Change vs. anti-PD-1 (mean EC50) [4]: 4.82 fold
Fold Change vs. anti-TIGIT (mean EC50) [5]: 2.85 fold
EC50 [6]: 0.632 nM
EC50 [7]: 0.797 nM
EC50 [8]: 0.314 nM
EC50 [9]: 0.944 nM
EC50 [10]: 5.49 nM
EC50 [11]: 0.303 nM
EC50 [12]: 0.375 nM
EC50 [13]: 0.769 nM
EC50 [14]: 0.584 nM
EC50 [15]: 1.01 nM
EC50 [16]: 0.282 nM
EC50 [17]: 0.346 nM
EC50 [18]: 3.22 nM
EC50 [19]: 0.339 nM
Kd [20]: 41.1 nM
koff [20]: 0.0411 s⁻¹
kon [20]: 999000 M⁻¹ s⁻¹
Kd [21]: 0.015 nM
koff [21]: 6.57e-05 s⁻¹
kon [21]: 4.37e+06 M⁻¹ s⁻¹
Kd [22]: 2.9 nM
koff [22]: 0.00631 s⁻¹
kon [22]: 2.17e+06 M⁻¹ s⁻¹
EC50 [23]: 0.495 nM
Kd [24]: 3.42 nM
Kd [25]: 19.9 nM
B1: AZD2936 (PD-1/TIGIT bispecific DuetMab, LO115/VAR1 VHGL-VLGL(M-I)) (bispecific antibody, human IgG1, kappa, lambda)
heavy 1: EVQLVESGGGLVQPGGSLRLSCAASGFTFSDYGMHWVRQAPGKGLEWVAYISSGSYTIYSADSVKGRFTISRDNAKNSLYLQMNSLRAEDTAVYYCARRAPNSFYEYYFDYWGQGTTVTVSSASTKGPSVFPLAPSSKSTSGGTAALGCLVKDYFPEPVTVSWNSGALTSGVHTFPAVLQSSGLYSLSSVVTVPSSSLGTQTYICNVNHKPSNTKVDKRVEPKSCDKTHTCPPCPAPEFEGGPSVFLFPPKPKDTLMISRTPEVTCVVVDVSHEDPEVKFNWYVDGVEVHNAKTKPREEQYNSTYRVVSVLTVLHQDWLNGKEYKCKVSNKALPASIEKTISKAKGQPREPQVCTLPPSREEMTKNQVSLSCAVKGFYPSDIAVEWESNGQPENNYKTTPPVLDSDGSFFLVSKLTVDKSRWQQGNVFSCSVMHEALHNHYTQKSLSLSPGK
light 1: QIVLTQSPATLSLSPGERATLSCSASSKHTNLYWSRHMYWYQQKPGQAPRLLIYLTSNRATGIPARFSGSGSGTDFTLTISSLEPEDFAVYYCQQWSSNPFTFGQGTKLEIKRTVAAPSVFIFPPSDEQLKSGTASVVCLLNNFYPREAKVQWKVDNALQSGNSQESVTEQDSKDSTYSLSSTLTLSKADYEKHKVYACEVTHQGLSSPVTKSFNRGEC
heavy 2: not shown
light 2: not shown
notes: also called VAR1 (LO115/VHGL-VLGL(M-I)); VL GL (CDRL1 M-I) + VH GL
